Experimental data from patent US12072338B2, “Pharmaceutical peptides for the treatment of inflammatory diseases” (PROTAGONISTS LTD., priority 2007, dated 2024).

Tests used:
GRO-β = biological target: T1, GRO-β (Homo sapiens, UniProt P19875); test: Micro-array analysis of chemokine binding peptides: GRO-β
T1 construct: purchased 300-39
T1 sequence (P19875 35-107): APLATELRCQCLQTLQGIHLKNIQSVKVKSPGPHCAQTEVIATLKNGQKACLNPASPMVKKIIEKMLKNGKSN
Experimental: (§1) (1) Printing: Chemokine (CK) solution (in water) was serially diluted with Print Reagent (GenTel BioSurfaces USA) to final concentrations of 50 μg and 25 μg/ml. BSA/BSA-Biotin control solutions (in water) were diluted with Print Reagent to 100 μg/ml. Amplified stock of M13 phage control (M13KEgIII Cloning Vector, New England Biolabs, Cat.No.E8101S) was stored in Tris Buffered Saline (TBS; pH7.5, 4° C.) and diluted with Print Reagent to the working titre (10^8 pfu/μl). An automated spotting robot (16 pin print tool, 0.4 mm head; BioRobotics, UK) was used to print the CK/BSA control/M13 control, 5 repeats per sample (CK 25 μg/ml and 50 μg/ml; BSA 100 μg/ml; M13 20 μl), on PATH Protein Microarray Slides (GenTel, Prod.No. 2-1005/-1025) at […], and 50-70% relative humidity. Printed micro-array slides were stored at Room Temperature (RT) or 4° C. for at least 24 h before use.
(§2) (2) Blocking: Block Buffer (500 μl/partition; PATHblock, GenTel, Prod.No. 2-1014) was applied to the slide for 1 hour at room temp (RT). After removal of Block Buffer, the slide was air dried for 25 minutes;
(§3) (3) Phage Presented Peptide Binding: Amplified recombinant phage stock was stored in TBS and diluted with Wash Buffer to working titer (10^7 pfu/μl). Recombinant phage suspension (300 μl) was applied per partition and incubated at RT for 1 hour with gentle agitation.
(§4) (4) First Washing: The slides were washed twice with Wash Buffer 300 μl/partition).
(§5) (5) Primary Antibody (Ab) Labeling: The slides were incubated with the Primary Ab (1 mg/ml diluted ×2500 (Wash Reagent), 300 μl; Mouse Anti-M13 monoclonal Ab; Amersham Biosciences, UK; Product Code 27-9420-01) for 45 minutes at RT.
(§6) (6) Second Washing: The slides were washed twice with Wash Buffer (300 μl/partition).
(§7) (7) Secondary Ab Labeling: The slides were incubated with Secondary Ab (1.5 mg/ml diluted ×5000 (Wash Reagent), 300 μl; Cy3-conjugated AffiniPure Goat Anti-Mouse IgG; Jackson ImmunoReserch Labs, USA; Product Code 115-165-062).
(§8) (8) Third Washing: The slides were washed twice with Wash Buffer (300 μl/partition).
(§9) (9) Rinse: the slides were rinsed twice with Rinse Buffer (PATHrinse, GenTel, Prod.No. 2-1018) then dried well.
(§10) (10) Scanning: The peptide-bound, labeled slide was scanned (Laser Intensity 80%, Gain 80%, Resolution 10 μm) with a ScanArray Life Scanner (Packard BioChip Technologies, USA).
(§11) (11) Analysis: Quantitative analysis of micro-array was performed by the SpotReader program of Niles Scientific (USA) and presented as Relative Fluorescence (RF) as a function of CK concentration. Micro-array readout (Cy3 fluorescence) was quantified to determine the relative binding affinities of a CBP for the CKs and by inference, the specificity of the CBP for binding to a CK.

IL-8 = test: Micro-array analysis of chemokine binding peptides: IL-8
Experimental: as §1, §2, §3, §4, §5, §6, §7, §8, §9, §10, §11

Mig = biological target: T2, Mig (Homo sapiens, UniProt Q07325); test: Micro-array analysis of chemokine binding peptides: Mig
T2 construct: purchased 300-26
T2 sequence (Q07325 23-125): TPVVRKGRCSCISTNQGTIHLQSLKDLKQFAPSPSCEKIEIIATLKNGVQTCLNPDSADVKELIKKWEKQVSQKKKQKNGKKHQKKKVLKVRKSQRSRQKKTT
Experimental: as §1, §2, §3, §4, §5, §6, §7, §8, §9, §10, §11

I-TAC = biological target: T3, I-TAC (Homo sapiens, UniProt O14625); test: Micro-array analysis of chemokine binding peptides: I-TAC
T3 construct: purchased 300-46
T3 sequence (O14625 22-94): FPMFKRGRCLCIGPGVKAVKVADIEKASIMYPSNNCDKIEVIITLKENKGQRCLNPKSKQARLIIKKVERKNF
Experimental: as §1, §2, §3, §4, §5, §6, §7, §8, §9, §10, §11

I-309 = biological target: T4, I-309 (Homo sapiens, UniProt P22362); test: Micro-array analysis of chemokine binding peptides: I-309
T4 construct: purchased 300-37
T4 sequence (P22362 24-96): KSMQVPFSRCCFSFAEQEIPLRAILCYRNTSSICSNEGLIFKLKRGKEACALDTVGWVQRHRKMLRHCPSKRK
Experimental: as §1, §2, §3, §4, §5, §6, §7, §8, §9, §10, §11

MCP-1 = biological target: T5, MCP-1 (Homo sapiens, UniProt P13500); test: Micro-array analysis of chemokine binding peptides: MCP-1
T5 construct: purchased 300-04
Experimental: as §1, §2, §3, §4, §5, §6, §7, §8, §9, §10, §11

MCP-2 = biological target: T6, MCP-2 (Homo sapiens, UniProt P80075); test: Micro-array analysis of chemokine binding peptides: MCP-2
T6 construct: purchased 300-15
T6 sequence (P80075 24-99): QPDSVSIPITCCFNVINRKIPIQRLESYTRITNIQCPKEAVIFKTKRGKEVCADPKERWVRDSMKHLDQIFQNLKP
Experimental: as §1, §2, §3, §4, §5, §6, §7, §8, §9, §10, §11

MCP-4 = biological target: T7, MCP-4 (Homo sapiens, UniProt Q99616); test: Micro-array analysis of chemokine binding peptides: MCP-4; conditions: limit = start of the upper 75% of that peptide's response range
T7 construct: purchased 300-24
Experimental: as §1, §2, §3, §4, §5, §6, §7, §8, §9, §10, §11

RANTES = biological target: T8, RANTES (Homo sapiens, UniProt P13501); test: Micro-array analysis of chemokine binding peptides: RANTES; conditions: limit = start of the upper 75% of that peptide's response range
T8 construct: purchased 300-06
T8 sequence (P13501 24-91): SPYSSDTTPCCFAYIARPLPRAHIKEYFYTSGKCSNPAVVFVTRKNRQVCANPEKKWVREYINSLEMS
Experimental: as §1, §2, §3, §4, §5, §6, §7, §8, §9, §10, §11

Eotaxin = biological target: T9, Eotaxin (Homo sapiens, UniProt P51671); test: Micro-array analysis of chemokine binding peptides: Eotaxin
T9 construct: purchased 300-21
Experimental: as §1, §2, §3, §4, §5, §6, §7, §8, §9, §10, §11

Eotaxin 2 = biological target: T10, Eotaxin 2 (Homo sapiens, UniProt O00175); test: Micro-array analysis of chemokine binding peptides: Eotaxin 2
T10 construct: purchased 300-33
T10 sequence (O00175 27-119): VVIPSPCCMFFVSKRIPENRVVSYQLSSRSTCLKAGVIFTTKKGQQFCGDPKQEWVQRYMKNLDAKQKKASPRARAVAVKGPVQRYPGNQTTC
Experimental: as §1, §2, §3, §4, §5, §6, §7, §8, §9, §10, §11

Eotaxin 3 = biological target: T11, Eotaxin 3 (Homo sapiens, UniProt Q9Y258); test: Micro-array analysis of chemokine binding peptides: Eotaxin 3
T11 construct: purchased 300-48
T11 sequence (Q9Y258 24-94): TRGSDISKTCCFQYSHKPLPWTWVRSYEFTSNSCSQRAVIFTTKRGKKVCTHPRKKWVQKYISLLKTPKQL
Experimental: as §1, §2, §3, §4, §5, §6, §7, §8, §9, §10, §11

BCA-1 = biological target: T12, BCA-1 (Homo sapiens, UniProt O43927); test: Micro-array analysis of chemokine binding peptides: BCA-1
T12 construct: purchased 300-47
T12 sequence (O43927 23-109): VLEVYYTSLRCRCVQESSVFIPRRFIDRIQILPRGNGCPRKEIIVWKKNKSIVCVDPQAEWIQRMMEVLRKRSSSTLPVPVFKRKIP
Experimental: as §1, §2, §3, §4, §5, §6, §7, §8, §9, §10, §11

TECK = biological target: T13, TECK (Homo sapiens, UniProt O15444); test: Micro-array analysis of chemokine binding peptides: TECK
T13 construct: purchased 300-45
T13 sequence (O15444 24-150): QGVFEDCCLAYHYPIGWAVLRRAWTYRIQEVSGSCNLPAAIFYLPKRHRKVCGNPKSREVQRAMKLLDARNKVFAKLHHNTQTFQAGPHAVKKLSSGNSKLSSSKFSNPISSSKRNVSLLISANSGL
Experimental: as §1, §2, §3, §4, §5, §6, §7, §8, §9, §10, §11

Fractalkine = biological target: T14, Fractalkine (Homo sapiens, UniProt P78423); test: Micro-array analysis of chemokine binding peptides: Fractalkine
T14 construct: purchased 300-31
T14 sequence (P78423 25-100 limits assumed): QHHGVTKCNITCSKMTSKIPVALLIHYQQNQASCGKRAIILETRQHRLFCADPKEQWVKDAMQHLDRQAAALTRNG
Experimental: as §1, §2, §3, §4, §5, §6, §7, §8, §9, §10, §11

Lymphotactin = biological target: T15, Lymphotactin (Homo sapiens, UniProt P47992); test: Micro-array analysis of chemokine binding peptides: Lymphotactin
T15 construct: purchased 300-20
T15 sequence (P47992 22-114): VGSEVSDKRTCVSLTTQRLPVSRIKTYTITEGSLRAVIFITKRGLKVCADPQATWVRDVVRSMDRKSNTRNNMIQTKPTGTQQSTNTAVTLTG
Experimental: as §1, §2, §3, §4, §5, §6, §7, §8, §9, §10, §11

MDC 69 = biological target: T16, MDC 69 (Homo sapiens, UniProt O00626); test: Micro-array analysis of chemokine binding peptides: MDC 69
T16 construct: MDC(69aa), (CCL22 cat.no.300-36A); purchased 300-36A
T16 sequence (O00626 25-93): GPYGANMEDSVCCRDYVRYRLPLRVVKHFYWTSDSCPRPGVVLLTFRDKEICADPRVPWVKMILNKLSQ
Experimental: as §1, §2, §3, §4
(5) Primary Antibody (Ab) Labeling: The slides were incubated with the Primary Ab (1 mg/ml diluted ×2500 (Wash Reagent), 300 μl; Mouse Anti-M13 monoclonal Ab; Amersham Biosciences, UK; Product Code 27-9420-01) for 45 minutes at RT. […]
as §11

Chain of IL-8 (P10145 28-99 limits assumed): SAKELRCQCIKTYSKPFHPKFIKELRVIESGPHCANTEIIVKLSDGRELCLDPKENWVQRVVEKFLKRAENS
T7 sequence (Q99616 17-98): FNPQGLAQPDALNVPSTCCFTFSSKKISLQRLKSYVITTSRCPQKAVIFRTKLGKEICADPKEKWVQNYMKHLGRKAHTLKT
T5 sequence (P13500 24-99): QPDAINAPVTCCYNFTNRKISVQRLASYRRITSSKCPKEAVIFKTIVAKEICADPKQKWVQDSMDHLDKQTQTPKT

binding to GRO-β, stated in words (GRO-β): bound
binding to IL-8, stated in words (IL-8): bound
binding to Mig, stated in words (Mig): bound
binding to I-TAC, stated in words (I-TAC): bound
binding to I-309, stated in words (I-309): bound
binding to MCP-1, stated in words (MCP-1): bound
binding to MCP-2, stated in words (MCP-2): bound
binding to MCP-4 with relatively high affinity (Relative Fluorescence Units) (MCP-4): > 15,000 RFU
binding to RANTES with relatively high affinity (Relative Fluorescence Units) (RANTES): > 15,000 RFU
binding to Eotaxin, stated in words (Eotaxin): bound
binding to Eotaxin 2, stated in words (Eotaxin 2): bound
binding to Eotaxin 3, stated in words (Eotaxin 3): bound
binding to BCA-1, stated in words (BCA-1): bound
binding to TECK, stated in words (TECK): bound
binding to Fractalkine, stated in words (Fractalkine): bound
binding to Lymphotactin, stated in words (Lymphotactin): bound
binding to MDC 69, stated in words (MDC 69): bound
Sequence: HHTCSLHFP [Ph-p16]
